Source: article PMC7583046, “The Paralogue of the Intrinsically Disordered Nuclear Protein 1 Has a Nuclear Localization Sequence that Binds to Human Importin α3” (International Journal of Molecular Sciences, 2020)

Columns and labels:
[1] = ref [25]; cited from earlier work
∆Impα3 = conditions: CD 222 nm, 60 K/h, 50 mM phosphate pH 7.0, not reversible
Excerpt: Far-UV CD spectra were collected on a Jasco J810 spectropolarimeter (Jasco, Tokyo, Japan) with a thermostated cell holder, and interfaced with a Peltier unit at 298 K. The instrument was periodically calibrated with (+)-10-camphorsulphonic acid. A cell with a path length of 0.1 cm was used (Hellma, Kruibeke, Belgium). All spectra were corrected by subtracting the corresponding baseline. The concentration of each polypeptide (importin species and either NLS-NUPR1L or intact NUPR1L) was the same as that used in the fluorescence experiments (Section 4.4).

[2] = cited from earlier work
[3] = target: T1, ∆Impα3, truncated species of human importin α3 (residues 64-521) depleted of the IBB (human, UniProt O00629 64-521); assay: other fluorescence titration; importin (0-10 μM) added to a fixed concentration of NUPR1L (8 μM) or NLS-NUPR1L (8.5 μM); 50 mM phosphate buffer, pH 7.0, 298 K; excitation at 280 nm; apparent dissociation constants; conditions: both partners purified
T1 construct: source: E. coli BL21 (DE3), purified (codon-optimized)
T1 sequence (looked up): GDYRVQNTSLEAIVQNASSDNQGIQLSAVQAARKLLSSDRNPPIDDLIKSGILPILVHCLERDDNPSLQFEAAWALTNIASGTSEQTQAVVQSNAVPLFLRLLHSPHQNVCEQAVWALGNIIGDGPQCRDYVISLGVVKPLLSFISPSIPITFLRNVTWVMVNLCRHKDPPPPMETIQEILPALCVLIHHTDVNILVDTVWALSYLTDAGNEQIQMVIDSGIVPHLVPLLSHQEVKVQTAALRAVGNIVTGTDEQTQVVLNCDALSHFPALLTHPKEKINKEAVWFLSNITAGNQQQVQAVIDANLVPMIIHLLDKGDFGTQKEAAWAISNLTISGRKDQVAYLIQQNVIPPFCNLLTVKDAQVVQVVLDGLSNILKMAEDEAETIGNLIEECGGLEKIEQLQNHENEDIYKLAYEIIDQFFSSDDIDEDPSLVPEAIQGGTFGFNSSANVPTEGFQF

[4] = target: T2, human importin α3 (Impα3), intact (human, UniProt O00629 1-521); assay: as above; conditions: both partners purified
T2 construct: Human importin α3 (KPNA4), intact protein with the IBB domain, residues 1-521; Purification as for ∆Impα3; also called KPNA4; source: E. coli BL21 (DE3), purified (codon-optimized DNA synthesized by NZYtech, in the pHTP1 vector)
T2 sequence (looked up): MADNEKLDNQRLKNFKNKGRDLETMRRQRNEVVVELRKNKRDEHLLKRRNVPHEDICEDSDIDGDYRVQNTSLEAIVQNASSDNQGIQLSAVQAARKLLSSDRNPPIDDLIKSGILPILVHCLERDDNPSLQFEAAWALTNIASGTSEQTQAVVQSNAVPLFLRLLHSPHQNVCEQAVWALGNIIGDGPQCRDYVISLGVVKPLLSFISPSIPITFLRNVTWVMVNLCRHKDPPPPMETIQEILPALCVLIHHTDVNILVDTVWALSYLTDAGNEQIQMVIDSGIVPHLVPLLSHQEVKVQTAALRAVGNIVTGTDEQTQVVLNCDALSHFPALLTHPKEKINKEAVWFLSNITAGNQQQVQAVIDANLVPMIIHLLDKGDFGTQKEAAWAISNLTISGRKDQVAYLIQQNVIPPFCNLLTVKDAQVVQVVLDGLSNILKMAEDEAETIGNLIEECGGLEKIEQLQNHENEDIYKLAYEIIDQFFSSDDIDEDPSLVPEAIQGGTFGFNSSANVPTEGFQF

prothymosin α = conditions: ref [14]; cited from earlier work
Excerpt: In this aspect, NLS-NUPR1L behaves not differently from any other NLS region of a well-folded protein [15, 20, 22, 40]; that is, it is disordered both in isolation and when participating in forming the complex with impo ...

[5] = target: T1, ∆Impα3, truncated species of human …; assay: ITC; Impα3 or ∆Impα3 (10-20 μM) in the cell, NLS-NUPR1L (150-300 μM) in the syringe; Tris 50 mM, pH 8, 298 K; single ligand binding site model; conditions: both partners purified
[6] = target: T2, human importin α3 (Impα3), intact; assay: as above; conditions: both partners purified
[7] = target: T1, ∆Impα3, truncated species of human …; assay: other fluorescence titration; importin (0-10 μM) added to a fixed concentration of NUPR1L (8 μM) or NLS-NUPR1L (8.5 μM); 50 mM phosphate buffer, pH 7.0, 298 K; excitation at 280 nm; apparent dissociation constants; conditions: both partners purified; remark: listed apart in the source
[8] = target: T2, human importin α3 (Impα3), intact; assay: as above; conditions: both partners purified; remark: listed apart in the source

B1: ∆Impα3: Truncated species of Impα3 (residues 64-521) depleted of the IBB (protein, UniProt O00629 64-521, looked up, fragment)
chain: GDYRVQNTSLEAIVQNASSDNQGIQLSAVQAARKLLSSDRNPPIDDLIKSGILPILVHCLERDDNPSLQFEAAWALTNIASGTSEQTQAVVQSNAVPLFLRLLHSPHQNVCEQAVWALGNIIGDGPQCRDYVISLGVVKPLLSFISPSIPITFLRNVTWVMVNLCRHKDPPPPMETIQEILPALCVLIHHTDVNILVDTVWALSYLTDAGNEQIQMVIDSGIVPHLVPLLSHQEVKVQTAALRAVGNIVTGTDEQTQVVLNCDALSHFPALLTHPKEKINKEAVWFLSNITAGNQQQVQAVIDANLVPMIIHLLDKGDFGTQKEAAWAISNLTISGRKDQVAYLIQQNVIPPFCNLLTVKDAQVVQVVLDGLSNILKMAEDEAETIGNLIEECGGLEKIEQLQNHENEDIYKLAYEIIDQFFSSDDIDEDPSLVPEAIQGGTFGFNSSANVPTEGFQF
For B1, the “solubility (relative to other importin species)” value [1] is listed as “lower solubility” and the “apparent thermal midpoint of unfolding of isolated ∆Impα3” value (∆Impα3; absence of NUPR1L) is listed as 317 K.

B2: NUPR1L, the NUPR1-like paralogue (intact) (natural protein, UniProt A6NF83 1-97, looked up)
chain: MEAPAERALPRLQALARPPPPISYEEELYDCLDYYYLRDFPACGAGRSKGRTRREQALRTNWPAPGGHERKVAQKLLNGQRKRRQRQLHPKMRTRLT
notes: NUPR1L, 97-residue-long paralogue of NUPR1, intact protein; one tryptophan (Trp62) and five tyrosines; concentrations are in protomer units; also called intact NUPR1L; source: expressed and purified as described [14]
For B2, the “self-association state in solution” value ([2]; intact protein in solution, no reference at the place) is given as “oligomer”, the tendency to aggregate ([2]; intact protein, ref [14]) is given as “high tendency to aggregate” and the “apparent thermal midpoint of unfolding of ∆Impα3, in presence of NUPR1L” value (∆Impα3; 15 μM NUPR1L, 5 μM importin) is given as 323 K. For the same molecule, the Kd [3] was 5 ± 1 µM, the Kd [4] was 4 ± 0.7 µM and the “involvement of Trp62 in binding to prothymosin α” value (prothymosin α) was “Trp62 is also involved in the binding of NUPR1L to prothymosin α”.

B3: NLS-NUPR1L, peptide of the nuclear localization sequence of NUPR1L (residues 51-74) (peptide)
peptide: Ac-RTRREQALRTNWPAPGGHERKVAQ-NH2
notes: NUPR1L residues Arg51 to Gln74, the predicted NLS region; numbering as in intact NUPR1L; also called NLS-NUNPR1L; source: synthetic peptide (NZYtech, purity of 95%)
With B3 the Kd [5] was 5.5 ± 0.9 µM, the dH [5] was -2.4 ± 0.5 kcal/mol and the “stoichiometry N” value [5] was 0.75 ± 0.06. For the same molecule, the Kd [6] was 12 ± 2 µM, the dH [6] was -3.1 ± 0.5 kcal/mol and the “stoichiometry N” value [6] was 1.04 ± 0.05. The Kd [7] was 5 ± 2 µM and the Kd [8] was 3 ± 1 µM.

B4: Impα3: Human importin α3 isoform (residues 1–521) (protein, UniProt O00629 1-521, looked up)
chain: MADNEKLDNQRLKNFKNKGRDLETMRRQRNEVVVELRKNKRDEHLLKRRNVPHEDICEDSDIDGDYRVQNTSLEAIVQNASSDNQGIQLSAVQAARKLLSSDRNPPIDDLIKSGILPILVHCLERDDNPSLQFEAAWALTNIASGTSEQTQAVVQSNAVPLFLRLLHSPHQNVCEQAVWALGNIIGDGPQCRDYVISLGVVKPLLSFISPSIPITFLRNVTWVMVNLCRHKDPPPPMETIQEILPALCVLIHHTDVNILVDTVWALSYLTDAGNEQIQMVIDSGIVPHLVPLLSHQEVKVQTAALRAVGNIVTGTDEQTQVVLNCDALSHFPALLTHPKEKINKEAVWFLSNITAGNQQQVQAVIDANLVPMIIHLLDKGDFGTQKEAAWAISNLTISGRKDQVAYLIQQNVIPPFCNLLTVKDAQVVQVVLDGLSNILKMAEDEAETIGNLIEECGGLEKIEQLQNHENEDIYKLAYEIIDQFFSSDDIDEDPSLVPEAIQGGTFGFNSSANVPTEGFQF
modifications: full-length
In the case of B4, the “solubility (relative to other importin species)” value [1] is given as “larger solubility”.
